This is an account of results in publication PMC5986797, “Laminin heparin-binding peptides bind to several growth factors and enhance diabetic wound healing” (Nature Communications, 2018).

As usually defined, the Kd is the free concentration of one partner at which half of the binding sites on the other are occupied at equilibrium, for simple one-to-one binding.

Common to all, as to settings: both partners purified
The target in assay [1] is T1, recombinant human laminin-211 (human, UniProt P24043 23-3122; P07942 22-1786; P11047 34-1609).
T1 construct: laminin subunit alpha-2, human; chain told by the isoform's name; laminin subunit beta-1, human; laminin subunit gamma-1, human; source: bought: BioLamina (recombinant human, >95% purity); copies: + +
Kind of assay: ELISA; plates coated with 50 nM GF or chemokine in PBS; 10 nM laminin isoform in PBS added; bound laminin detected with anti-LAMC1 or anti-LAMA3 polyclonal antibody; A450 signals greater than 0.1 taken as binding; BSA-coated wells as control. (In an ELISA, binding on a coated surface is turned into a signal by an enzyme label.)

The target in assay [2] is T2, recombinant human laminin-111 (human, UniProt P25391 18-3075; P07942 22-1786; P11047 34-1609).
T2 construct: laminin subunit alpha-1, human; chain told by the isoform's name; laminin subunit beta-1, human; laminin subunit gamma-1, human; source: bought: BioLamina (recombinant human, >95% purity); copies: + +
The description is as above.

Assay [3] deals with T3, recombinant human laminin-521 (human, UniProt O15230 36-3695; P55268 33-1798; P11047 34-1609).
T3 construct: laminin subunit alpha-5, human; chain told by the isoform's name; laminin subunit beta-2, human; laminin subunit gamma-1, human; also called laminin isoform-521; source: bought: BioLamina (recombinant human, >95% purity); copies: + +
As to the kind of experiment: SPR; laminin-521 immobilised by amine coupling on a C1 chip (~2000 RU); GF flown at 20 μL/min in 0.01 M HEPES pH 7.4, 0.15 M NaCl, 0.005% surfactant P20; Langmuir binding kinetics.

Assay [4] deals with T4, recombinant laminin LAMA3_(2928–3150) protein (human, UniProt Q16787 2928-3150).
T4 construct: laminin subunit alpha-3, human, LG domain Ser2928-Cys3150 (linker domain and LG4 domain); also called laminin alpha 3 LG domain recombinant protein; source: HEK-293F, transfected, purified from culture medium (HisTrap, size-exclusion chromatography)
T4 sequence (looked up): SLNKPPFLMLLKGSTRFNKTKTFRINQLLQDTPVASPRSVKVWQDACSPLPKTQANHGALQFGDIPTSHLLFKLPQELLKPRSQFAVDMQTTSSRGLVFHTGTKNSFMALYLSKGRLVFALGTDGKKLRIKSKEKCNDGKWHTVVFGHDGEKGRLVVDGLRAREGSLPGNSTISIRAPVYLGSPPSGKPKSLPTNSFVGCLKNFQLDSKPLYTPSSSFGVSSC
As to the kind of experiment: SPR; LAMA3 2928–3150 immobilised by amine coupling on a C1 chip (~1000 RU); GF flown at 20 μL/min in 0.01 M HEPES pH 7.4, 0.15 M NaCl, 0.005% surfactant P20; Langmuir binding kinetics. Background: SPR reads the build-up and loss of mass on a sensor chip optically.

The target in assay [5] is T1, recombinant human laminin-211. As to the kind of experiment: ELISA; plates coated with 10 μg/mL laminin isoform; 1 μg/mL GF for 60 min at RT in the absence or presence of 10 μM heparin; bound GF detected with an antibody for each GF.
In assay [6] the target is T2, recombinant human laminin-111. Described as above.
In assay [7] the target is T4, recombinant laminin LAMA3_(2928–3150) …. As to the kind of experiment: ELISA; plates coated with 1 μg/mL recombinant laminin LG domain; 1 μg/mL GF added; bound GF detected with an antibody for each GF; BSA-coated wells as control.

B1: platelet-derived growth factor PDGF-BB (ligand, human, UniProt P01127 82-190, looked up)
chain: SLGSLTIAEPAMIAECKTRTEVFEISRRLIDRTNANFLVWPPCVEVQRCSGCCNNRNVQCRPTQVQLRPVQVRKIEIVRKKPIFKKATVTLEDHLACKCETVAAARPVT
notes: platelet-derived growth factor subunit B, human, bought in its mature form; a homodimer by its name; source: bought: PeproTech; produced in Escherichia coli
As to B1, the binding result in assay [1] and in assay [2] was “binds” throughout. In addition, the Kd was found to be 24.2 nM in assay [3] and 10.2 nM in assay [4].

B2: placental growth factor (PlGF)-2 (ligand, human, UniProt P49763-3 19-170, looked up)
chain: LPAVPPQQWALSAGNGSSEVEVVPFQEVWGRSYCRALERLVDVVSEYPSEVEHMFSPSCVSLLRCTGCCGDENLHCVPVETANVTMQLLKIRSGDRPSYVELTFSQHVRCECRPLREKMKPERRRPKGRGKRRREKQRPTDCHLCGDAVPRR
notes: placenta growth factor, form PlGF-2, human, bought in its mature form; source: bought: PeproTech; produced in Escherichia coli
As for B2, the Kd in assay [3] was 12.9 nM. For the same molecule, the binding result in assay [5], in assay [6] and in assay [7] was “binds” in each case.
